Assay results published in the DeepSol protein solubility set.

Assay: soluble on expression in E. coli; label from the status in PepcDB or PDB records

Sequence	soluble on expression in E. coli
MVAVERVESLAKSGIISIPKEYIRPKEELESINDVFLEEKKEDGPQVPTIDLKNIESDDEKIRENCIEELKKASLDWGVMHLINHGIPADLMERVKKAGEEFFSLSVEEKEKYANDQATGKIQGYGSKLANNASGQLEWEDYFFHLAYPEEKRDLSIWPKTPSDYIEATSEYAKCLRLLATKVFKALSVGLGLEPDRLEKEVGGLEELLLQMKINYYPKCPQPELALGVEAHTDVSALTFILHNMVPGLQLFYEGKWVTAKCVPDSIVMHIGDTLEILSNGKYKSILHRGLVNKEKVRISWAVFCEPPKDKIVLKPLPEMVSVESPAKFPPRTFAQHIEHKLFGKEQEELVSEKND	soluble
MVDGNYSVASNVMVPMRDGVRLAVDLYRPDADGPVPVLLVRNPYDKFDVFAWSTQSTNWLEFVRDGYAVVIQDTRGLFASEGEFVPHVDDEADAEDTLSWILEQAWCDGNVGMFGVSYLGVTQWQAAVSGVGGLKAIAPSMASADLYRAPWYGPGGALSVEALLGWSAKIGTGLITSRSDARPEDAADFVQLAAILNDVAGAASVTPLAEQPLLGRLIPWVIDQVVDHPDNDESWQSISLFERLGGLATPALITAGWYDGFVGESLRTFVAVKDNADARLVVGPWSHSNLTGRNADRKFGIAATYPIQEATTMHKAFFDRHLRGETDALAGVPKVRLFVMGIDEWRDETDWPLPDTAYTPFYLGGSGAANTSTGGGTLSTSISGTESADTYLYDPADPVPSLGGTLLFHNGDNGPADQRPIHDRDDVLCYSTEVLTDPVEVTGTVSARLFVSSSAVDTDFTAKLVDVFPDGRAIALCDGIVRMRYRETLVNPTLIEAGEIYEVAIDMLATSNVFLPGHRIMVQVSSSNFPKYDRNSNTGGVIAREQLEEMCTAVNRIHRGPEHPSHIVLPIIKRKLAAALEHHHHHH	soluble
MVDGQPSLQQVLERVDEWMAKEGLLDPNVKSIFVTCGDWDLKVMLPGQCQYLGLPVADYFKQWINLKKAYSFAMGCWPKNGLLDMNKGLSLQHIGRPHSGIDDCKNIANIMKTLAYRGFIFKQTSKPF	not soluble
MVDMAVTPVALLEASHLHYHVQQQALINDVSLHIASGEMVAIIGPNGAGKSTLLRLLTGYLSPSHGECHLLGQNLNSWQPKALARTRAVMRQYSELAFPFSVSEVIQMGRAPYGGSQDRQALQQVMAQTDCLALAQRDYRVLSGGEQQRVQLARVLAQLWQPQPTPRWLFLDEPTSALDLYHQQHTLRLLRQLTRQEPLAVCCVLHDLNLAALYADRIMLLAQGKLVACGTPEEVLNAETLTQWYQADLGVSRHPESALPQIYLRQ	not soluble
MVDQATLDKLEAGFKKLQEASDCKSLLKKHLTKDVFDSIKNKKTGMGATLLDVIQSGVENLDSGVGIYAPDAESYRTFGPLFDPIIDDYHGGFKLTDKHPPKQWGDINTLVGLDPAGQFIISTRVRCGRSLQGYPFNPCLTAEQYKEMEEKVSSTLSSMEDELKGTYYPLTGMSKATQQQLIDDHFLFKEGDRFLQTANACRYWPTGRGIFHNDAKTFLVWVNEEDHLRIISMQKGGDLKTVYKRLVTAVDNIESKLPFSHDDRFGFLTFCPTNLGTTMRASVHIQLPKLAKDRKVLEDIASKFNLQVRGTRGEHTESEGGVYDISNKRRLGLTEYQAVREMQDGILEMIKMEKAAA	soluble
MVDRFGDVLREWRQLRRMSQMDLGLSAGVSPRHISFLESGRALPSRGMVLRLCDELEVPGGARNRWLTSAGLAPAYHSRNGDAPEMAPLTQAVDWMLSRHAPYPAMAVDRHWRLKTMNRPARAMFAATGLGAGDGLIDALLDNPALAAALENRDEVERLSLTRLRTELAHFGRDPVLEQAVARLAERVARQPGAADAPMPAVIPARYRLGEAVLSFFTTITQFGATGDIAMSELRIEMFFPADDATRQMVEALWGNATPGN	not soluble
MVEEQLSLSGVEEIAPKIETPKIEKRTVKERRQQVLTVLIHMLHSERGMERMTTARLAKEVGVSEAALYRYFPSKTKMFEALIEHIESTLLSRITASMRNETQTMNRIHDILQTILDFARKNPGLTRVLTGHALMFEEAQLQARVAQFFDRLEMQFVNILQMRKLREGRAFNVDERIIASHLVTLCEGQFMRYVRTNFRLNSSQSFEQQWRFIEPLFA	not soluble
MVEERIINLSHEIKNFVYPNDPEFIVKTKKNGKYSVSELNMGVHTGTHIDYPMHVGLTNEKFENVFGKGYCVSLENMNDFFKNAPKNLEILLIKTDFSKYWEDPEYFEKECDIENHVEKLISMNLKAVGIDCCSIGNFSVHEKLLSSKIKIIENMKNLEILENKTFKFFGFPLNIEKIDGSPINAVAFLLEHHHHHH	not soluble
MVEKEETKKRARSSSSSSSSSSGSSSSGSSSSGSRSSSSSSSGRSRSRSPRRRDTRPPARGGRSRSPIRRGSPPRGARADRDRPMRPSPSPPRRRRPSPSPPRRDRRDRSGSRQRRRASPRRSPAARSASPAKRVVIKNLSRNVLKTHLEEIFSIYGAIKNVDLPPDRFHNHVHRGYGYVEYDNLEDAEKSIKHMDGGQIDGMAVHVEMTIGRQSVPFQRRSSPFRRRSPPPRDRMSPMRRGGRSPPPHRRRSPMGGRGSGANNMPLGGPNRFRRASRSRSPAGRRSRS	soluble
MVESTRVRSKRLSFSGKKTLSSFMQVNIASLRQSGKLRTSETYRATLNSFMKFMDGKDVLLSNMDAELMMGYETYLKAQGASMNTVSFYMRILRATYNRAVDKGVIRQRFPFKHVYTGVEKTVKRAISFKVIRQLKEMDLSHSQSMEFARDMFMFSFYTRGMSFVDMAFLKKTDLNNGMLTYRRKKTGQLLSIRWEKCMQDIVDKYPGNYSTYLLPIIIHIRKDERLQYKNSICLVNRRLKEIGKKLGLVHPLTMYVARHSWASVARGKHIPLSVISEGMGHDSEKTTLIYLAALDTTVIDKANMVVLREFL	not soluble
MVFNRVVQIGRVVFIASGKDQGKLAAIVNVIDGNRVQIDGPSSDVTRTVRNLKDLQLTKFVLKLRVGQRTKGVKAAFDAAKVTENFQKTQWAKKIAQRAIRAKLTDFERYKLMKAKQMRNRIVRVELAKLKKAQK	not soluble
MVGNPALAELLRAPRLIPWRNWSGAQSCLPLAREAPKDLDELVRIIRQASGRIRPVGSGHSFSALVPTDGTLLSLAYFSGLLSHDSVTLQAEFGGGTPMSQMGAPLKEIGQALVNMADIDYQTLAGAIATSTHGTGVGFGSYSAQVRGLQLVTASGEVLECDAKRNVEVFDAARVSLGALGVVTRVRLQNRAAYRLRERQWIARTEELLEDVEKNTRENQHWEMLVVTHSDYALSIALNETDEPKTPPLDPAKEGGNEFVGLIEGLDKYLSDFPETRRTLLNSLRHFARFDERVDDSYAVYANVRNVRFNEMEYSVPAEHGPACLREILALIRDKDLRTWFPIEYRYVKADDIPLSMFEGRDSCSISVHQHYSMDHHNFFAAVEPIFWKYAGRPHWGKLHGLNAHQLQGLYPRWKAFAEVRQALDPRGRFLNAHLSSILGVTKLAAALEHHHHHH	not soluble
MVGPATGRIVVTSRIVVLGGGFGGMYAARALKRRLGRAAEIELVNAENYFVFQPLLPEVGAGSITPAHAVSPLRFLLRDVFVRKATVDSVDFDRRLVTVFQGVQRRPTEIGYDHLVIALGQAADLSKMPGLEEHALTMRTLEDARRLRAHVIGQLEHAQITRLPEVKRGALTFCVVGGGFSGIETAGEMKDLIDRSLKFYPDIDPSEVRMIVVEFADRILGEMSQGLADYATRTLRERGIEVKLGTGVASATGTQLVTTTGEVIDTRTIVATIGNAPSPVVRRMGLPSERGRISVDRTLAVKGRSDVWALGDCALIALKDAPQGPRDYAPPTAQFAVREAEQLAENIASTLTGGTPQPFDYRSKGALASLGARKGVAQVFGLELKGFPAWLLWRFYYLAFLPGLTTRIFVLLNWFMDGISPRSVVQLHTRSVPPTRYVRYRAGDVIYEAGNRSDGFYTVVTGAVEMTRTDPETGLPQVRTIGPGGHFGERLILGATRRQTSVRAAEDTKVLVMDREEFLKLADSFQAFRDYFGPYMARHGMTWPPLGETDGQAAPKPVPTEKDLEHHHHHH	not soluble
MVGWRRMGLPADSLSDEALLALVARGDEEAFRALFRRYAGSFLALARRMGLDGAAAEDVVQEAMIRVWQKAKEFDPRRGSARAFLLTLGHHAAVDEVRRRAARPLPLEPDPEREEEAFDLPGPGLDEEGHLDRTRLGRALKALSPEERRVIEVLYYQGYTHREAASLLGLPLGTLKTWARRALSKLKEVLREP	soluble
MVHPAFQVFTDALRQRFGEALDAVVLYGSCLHTSDLTEGIADFYVLVSDYRLAYSGRLLAGLNAWLPPNVFYLEVPAAAGVMRAKYAVISTADFERGARQWFHPYIWARFAQPARLLYARDDQTGKRVHTAQASAVLKFISTTLPVLESGPSDLEMIWASGLMLTYAAELRAEREARARHLVRIDPEIYSRLTAAAMPALIPLLSLQADGRYHIGPITPLKRLSARIHWRLRRWQGRVLSVLRLSKATMTFRDCLDYAAWKIERHTGIKVEITPMLRRHPILWGYKVMWQLLRRGVLRLEHHHHHH	not soluble
MVIVLVVDSFKDTSNGTSMTAFRFFEALKKRGHVMRVVAPHVDNLGSEEEGYYNLKERYIPLVTEISHKQHILFAKPDEKILRKAFKGADMIHTYLPFLLEKTAVKIAREMQVPYIGSFHLQPEHISYNMKLGWFSWFNMMLFSWFKSSHYRYIHHIHCPSKFIVEELEKYNYGGKKYAISNGFDPMFRFEHPQKSLFDTTPFKIAMVGRYSNEKNQSVLIKAVALSKYKQDIVLLLKGKGPDEKKIKLLAQKLGVKAEFGFVNSNELLEILKTCTLYVHAANVESEAIACLEAISVGIVPVIANSPLSATRQFALDERSLFEPNNAKDLSAKIDWWLENKLERERMQNEYAKSALNYTLENSVIQIEKVYEEAIRDFKNNPHLFKTLSLEHHHHHH	soluble
MVIWFFYGFRKIMHLSLKRIIVKCKMSQLDRTSLIQYFNSNGVLISPEALDKLIKYSSSSLIEDLIKNSDGYIDEKYVERYVSRPKVRNDYEVYLPDVRFNASIEDFRKMFVSKYEKLSKIITSSSSMRGSISIKTAKRSQGEVKVVGMVSEVSMTKNGHKRIVIEDLDDSITAIVMKDRGPVNEIILEDEVIGIIGSVSQSSKDPVIFVNEIIRPDIPYRVIDEEKHEPVYVASISDIHVGSKTFRKNEFEAMVRWISGSDPDASRVKYLILSGDVVDGIGVYPDQENDLEILNPLEQYANLAEYLVDVPEDVKVFVMPGNHDTVRLSEPQPVFPGKIRDLFEPNVAFLPNPYNLKLEGKNVLVYHGMSLNDMIELIPGANYDSIGKAIEAILVRRHLSPKYGGNTPMIPSAVDYHVIEEVPDIFITGHIHSHYIGNYKGVRYVNSSTWQSQTEYQKMMNFNPKPSKLTLFDLYSRSVIVKDFDTTLLEHHHHHH	not soluble
MVKESIPKEGENIKIQSYKHDGNIHRVWSETTILKGTEHVIIGGNDHTLVTESDGRTWITREPAIVYFHSEYWFNVICMFREDGIYYYCNLSSPFACDEEALKYIDYDLDIKVYPNGKYHLLDEDEYEQHMNQMNYPHDIDIILRRNVDILQQWIEQKKGPFAPDFIKVWKERYKKIRDY	not soluble
MVKETHRFETFTEEPIRLIGEEGEWLGDFPLDLEGEKLRRLYRDMLAARMLDERYTILIRTGKTSFIAPAAGHEAAQVAIAHAIRPGFDWVFPYYRDHGLALALGIPLKELLGQMLATKADPNKGRQMPEHPGSKALNFFTVASPIASHVPPAAGAAISMKLLRTGQVAVCTFGDGATSEGDWYAGINFAAVQGAPAVFIAENNFYAISVDYRHQTHSPTIADKAHAFGIPGYLVDGMDVLASYYVVKEAVERARRGEGPSLVELRVYRYGPHSSADDDSRYRPKEEVAFWRKKDPIPRFRRFLEARGLWNEEWEEDVREEIRAELERGLKEAEEAGPVPPEWMFEDVFAEKPWHLLRQEALLKEEL	soluble
MVKIRLARFGSKHNPHYRIVVTDARRKRDGKYIEKIGYYDPRKTTPDWLKVDVERARYWLSVGAQPTDTARRLLRQAGVFRQEAREGA	soluble
